# Data: article PMC6744903
# Molecular target: MBP-XerD (V. cholerae) (UniProt Q9KPE9)
# Experiment: pull-down
substance,measurement,value
purified XafT peptide (natural protein),fold XafT recovered against amylose beads alone,3 fold
